Measurements as given in patent publication US20090241202A1 (MICROMET, published 2009).

Biological target: T1, human EpCAM on Kato III gastric carcinoma cells (human, UniProt P16422 24-314)
T1 sequence (looked up): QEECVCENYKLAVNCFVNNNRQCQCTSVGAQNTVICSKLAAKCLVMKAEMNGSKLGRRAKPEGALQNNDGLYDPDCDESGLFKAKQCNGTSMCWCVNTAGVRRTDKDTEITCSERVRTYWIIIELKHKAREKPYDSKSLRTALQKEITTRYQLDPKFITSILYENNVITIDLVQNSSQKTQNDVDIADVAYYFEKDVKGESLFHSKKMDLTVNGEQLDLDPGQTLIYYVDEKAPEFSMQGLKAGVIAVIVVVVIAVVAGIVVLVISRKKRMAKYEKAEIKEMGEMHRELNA
Assay: cell-based or functional assay

EC50 of ADCC (lysis of Kato III target cells), unstimulated human PBMC as effector cells, E:T 20:1: 2.11 µg/mL
potency of ADCC against Anti-EpCAM, prestimulated murine NK cells as effector cells: 43.7 fold
B1: domain-grafted Anti-EpCAM (antibody, mouse IgG2a, kappa, V domains shown)
VH: EVQLLESGGGVVQPGRSLRLSCAASGFTFSSYGMHWVRQAPGKGLEWVAVISYDGSNKYYADSVKGRFTISRDNSKNTLYLQMNSLRAEDTAVYYCAKDMGWGSGWRPYYYYGMDVWGQGTTVTVSS
VL: ELQMTQSPSSLSASVGDRVTITCRTSQSISSYLNWYQQKPGQPPKLLIYWASTRESGVPDRFSGSGSGTDFTLTISSLQPEDSATYYCQQSYDIPYTFGQGTKLEIKR
